Laboratory results as given in article PMC8816746, “Genetic tools for the redirection of the central carbon flow towards the production of lactate in the human gut bacterium Phocaeicola (Bacteroides) vulgatus” (Applied Microbiology and Biotechnology, 2022).

Substrate: CC(=O)C(=O)O
Experiment: purified protein
Type: biochemical, Phocaeicola vulgatus
Details: 250 μM NADH, 100 mM K-phosphate pH 7, 37 °C

B1: D-LDH (BVU_2499) (Phocaeicola vulgatus ATCC 8482) (protein)
chain: AYKIAFYDTKPYDERSFTEANEKFGFDIRYYKGHLNMNNVVLTKGVDVVCIFVNDTADAEVIRAMADNGVKLLALRCAGYNNVDLAATAGKMKVVRVPAYSPYAVAEFTVALMLSLNRKIPRATMRTRDGNFSLHGLMGFDMHGKTAGIIGTGKIAKILIQILRGFGMNVLAYDLYPDYNFAREHQVVYCTLDELYHSSDIISLHCPLTEQTKYLINDYSISKMKDGVMIINTGRGQLIHTNALIEGLKTKKVGYAGLDVYEEEEPYFYEDKSDKIIDDDTLARLLSFNNVIVTSHQAFFTKEAMTNIAHTTLQNVKDFAESRSLVNEVAVGRV
notes: full-length ldh in pASK-IBA5, N-terminal Strep-tag kept (no cleavage told), E. coli DH5alpha, Strep-Tactin purified
Km: 1400 ± 100 µM
